Measured values taken from the RNAGym collection of RNA variant scans (doi:10.1101/gr.219683.116).

B1: mRNA-splicing (parent)
chain: AGUUGCUGCUGGGAGCUCCAGCACAGUGAAAUGGACAGAAGGGCAGAGCAA

Variants of: B1
Experiment: exon inclusion enrichment index; higher = more inclusion; WT1 exon 5 minigene, HEK293

For AGUUAUAUAUGGGAGCUCCAGCACAGACAAAUGGACAGAAGGGCAGAGCAA, which “exon inclusion enrichment index” value is on record?
The value was 0.126.

Which “exon inclusion enrichment index” value does the source give for AGUUAUAUAUGGGAGCUCCAGCACAGAAAAAUGGACAGAAGGGCAGAGCAA here?
Its value is 0.065.

With AGUUAUAUAUGGGAGCUCCAGCACAGAUAAAUGGACAGAAGGGCAGAGCAA as the variant, how does the “exon inclusion enrichment index” value read?
The value was 0.0109.

For AGUUAUAUAUGGGAGCUCCAGCACAGUGAAAGGGACAGAAGGGCAGAGCAA, which “exon inclusion enrichment index” value is on record?
Its value is 0.0013.

For AGUUAUAUAUGGGAGCUCCAGCACAGUGAAAAGGACAGAAGGGCAGAGCAA, which “exon inclusion enrichment index” value is on record?
Its value is 0.0571.

Which “exon inclusion enrichment index” value does the source give for AGUUAUAUAUGGGAGCUCCAGCACAGUGAAACGGACAGAAGGGCAGAGCAA here?
Its value is 0.14.

Which “exon inclusion enrichment index” value does the source give for AGUUAUAUAUGGGAGCUCCAGCACAGUGAAAUGGACAGAAGGUCAGAGCAA here?
Its value is 0.0904.

For AGUUAUAUAUGGGAGCUCCAGCACAGUGAAAUGGACAGAAGGACAGAGCAA, which “exon inclusion enrichment index” value is on record?
The value was 0.454.

With AGUUAUAUAUGGGAGCUCCAGCACAGUGAAAUGGACAGAAGGCCAGAGCAA as the variant, how does the “exon inclusion enrichment index” value read?
Its value is 0.15.

Which “exon inclusion enrichment index” value does the source give for AGUUAUAUCAGGGAGCUCCAGCACAGUGAAAUGGACAGAAGGGCAGAGCAA here?
Its value is 0.0329.

With AGUUAUAUCCGGGAGCUCCAGCACAGUGAAAUGGACAGAAGGGCAGAGCAA as the variant, how does the “exon inclusion enrichment index” value read?
Its value is 1.03.

For AGUUAUAUCGGGGAGCUCCAGCACAGUGAAAUGGACAGAAGGGCAGAGCAA, which “exon inclusion enrichment index” value is on record?
Its value is 0.317.

With AGUUAUAUAUGGGAGCUCCAGCACAGCGAAAUGGACAGAAGGGCAGAGCAA as the variant, how does the “exon inclusion enrichment index” value read?
Its value is 0.399.

Which “exon inclusion enrichment index” value does the source give for AGUUAUAUAUGGGAGCUCCAGCACAGAGAAAUGGACAGAAGGGCAGAGCAA here?
The value was 0.0803.

Which “exon inclusion enrichment index” value does the source give for AGUUAUAUAUGGGAGCUCCAGCACAGGGAAAUGGACAGAAGGGCAGAGCAA here?
Its value is 0.0103.

Which “exon inclusion enrichment index” value does the source give for AGUUAUAUAUGGGAGCUCCAGCACAGUGAAAUGGACAGAAGUGCAGAGCAA here?
The value was 0.107.

For AGUUAUAUAUGGGAGCUCCAGCACAGUGAAAUGGACAGAAGCGCAGAGCAA, which “exon inclusion enrichment index” value is on record?
The value was 0.399.

Which “exon inclusion enrichment index” value does the source give for AGUUAUAUAUGGGAGCUCCAGCACAGUGAAAUGGACAGAAGAGCAGAGCAA here?
Its value is 0.446.

Which “exon inclusion enrichment index” value does the source give for AGUUAUAUAUGGGAGCUCCAGCACAGUGAAAAAGACAGAAGGGCAGAGCAA here?
The value was 0.00941.

Which “exon inclusion enrichment index” value does the source give for AGUUAUAUAUGGGAGCUCCAGCACAGUGAAAACGACAGAAGGGCAGAGCAA here?
The value was 0.0967.

Which “exon inclusion enrichment index” value does the source give for AGUUAUAUAUGGGAGCUCCAGCACAGUGAAAAUGACAGAAGGGCAGAGCAA here?
Its value is 0.0199.

For AGUUAUAUAUGGGAGCGCCAGCACAGUGAAAUGGACAGAAGGGCAGAGCAA, which “exon inclusion enrichment index” value is on record?
The value was 0.0456.

With AGUUAUAUAUGGGAGCCCCAGCACAGUGAAAUGGACAGAAGGGCAGAGCAA as the variant, how does the “exon inclusion enrichment index” value read?
The value was 0.0376.

For AGUUAUAUAUGGGAGCACCAGCACAGUGAAAUGGACAGAAGGGCAGAGCAA, which “exon inclusion enrichment index” value is on record?
The value was 0.0566.

Which “exon inclusion enrichment index” value does the source give for AGUUAUAUAUGGGAGCUCCAGCACAGUGAAAUGGACAGAAGGAGAGAGCAA here?
Its value is 0.476.

Which “exon inclusion enrichment index” value does the source give for AGUUAUAUAUGGGAGCUCCAGCACAGUGAAAUGGACAGAAGGAAAGAGCAA here?
The value was 0.441.

Which “exon inclusion enrichment index” value does the source give for AGUUAUAUAUGGGAGCUCCAGCACAGUGAAAUGGACAGAAGGAUAGAGCAA here?
Its value is 0.072.

With AGUUAUAUAUGGGAGCUCCAGCACAGUGAAAUGGACAGAAGGGCAAGGCAA as the variant, how does the “exon inclusion enrichment index” value read?
The value was 0.0237.

For AGUUAUAUAUGGGAGCUCCAGCACAGUGAAAUGGACAGAAGGGCAAUGCAA, which “exon inclusion enrichment index” value is on record?
The value was 0.0808.

With AGUUAUAUAUGGGAGCUCCAGCACAGUGAAAUGGACAGAAGGGCAACGCAA as the variant, how does the “exon inclusion enrichment index” value read?
Its value is 0.232.

For AGUUAUAUAUGGGAGCUCCAGCACAGUGAAAGUGACAGAAGGGCAGAGCAA, which “exon inclusion enrichment index” value is on record?
The value was 0.0122.

For AGUUAUAUAUGGGAGCUCCAGCACAGUGAAAGAGACAGAAGGGCAGAGCAA, which “exon inclusion enrichment index” value is on record?
The value was 0.00894.

For AGUUAUAUAUGGGAGCUCCAGCACAGUGAAAGCGACAGAAGGGCAGAGCAA, which “exon inclusion enrichment index” value is on record?
Its value is 0.0522.

For AGUUAUAUAUGGGAGCUCCAGCACAGUGAAAUGGACAGAAGGUUAGAGCAA, which “exon inclusion enrichment index” value is on record?
The value was 0.00909.

For AGUUAUAUAUGGGAGCUCCAGCACAGUGAAAUGGACAGAAGGUAAGAGCAA, which “exon inclusion enrichment index” value is on record?
The value was 0.00905.

With AGUUAUAUAUGGGAGCUCCAGCACAGUGAAAUGGACAGAAGGUGAGAGCAA as the variant, how does the “exon inclusion enrichment index” value read?
Its value is 0.073.

For AGUUAUAUAGCGGAGCUCCAGCACAGUGAAAUGGACAGAAGGGCAGAGCAA, which “exon inclusion enrichment index” value is on record?
Its value is 0.022.

Which “exon inclusion enrichment index” value does the source give for AGUUAUAUAGUGGAGCUCCAGCACAGUGAAAUGGACAGAAGGGCAGAGCAA here?
Its value is 0.014.

With AGUUAUAUAGAGGAGCUCCAGCACAGUGAAAUGGACAGAAGGGCAGAGCAA as the variant, how does the “exon inclusion enrichment index” value read?
Its value is 0.0194.

Which “exon inclusion enrichment index” value does the source give for AGUUAUAUAUGGGAGCUCCAGCACAGUGAAAUGGACAGAAUUGCAGAGCAA here?
The value was 0.0785.

For AGUUAUAUAUGGGAGCUCCAGCACAGUGAAAUGGACAGAAUAGCAGAGCAA, which “exon inclusion enrichment index” value is on record?
Its value is 0.0133.

With AGUUAUAUAUGGGAGCUCCAGCACAGUGAAAUGGACAGAAUCGCAGAGCAA as the variant, how does the “exon inclusion enrichment index” value read?
Its value is 0.226.

For AGUUAUAUAUGGGAGCUCCAGCACAGUGAAAUGGACAGAAGGCGAGAGCAA, which “exon inclusion enrichment index” value is on record?
Its value is 1.01.

Which “exon inclusion enrichment index” value does the source give for AGUUAUAUAUGGGAGCUCCAGCACAGUGAAAUGGACAGAAGGCUAGAGCAA here?
The value was 0.033.

Which “exon inclusion enrichment index” value does the source give for AGUUAUAUAUGGGAGCUCCAGCACAGUGAAAUGGACAGAAGGCAAGAGCAA here?
Its value is 0.403.

With AGUUAUAUAUGGGAGCUCCAGCACAGUGAAAUGGACAGAAGGGCACCGCAA as the variant, how does the “exon inclusion enrichment index” value read?
Its value is 0.144.

For AGUUAUAUAUGGGAGCUCCAGCACAGUGAAAUGGACAGAAGGGCACUGCAA, which “exon inclusion enrichment index” value is on record?
Its value is 0.0869.

For AGUUAUAUAUGGGAGCUCCAGCACAGUGAAAUGGACAGAAGGGCACGGCAA, which “exon inclusion enrichment index” value is on record?
The value was 0.159.

With AGUUAUAUAUGGGAGCAUCAGCACAGUGAAAUGGACAGAAGGGCAGAGCAA as the variant, how does the “exon inclusion enrichment index” value read?
Its value is 0.0116.

With AGUUAUAUAUGGGAGCAGCAGCACAGUGAAAUGGACAGAAGGGCAGAGCAA as the variant, how does the “exon inclusion enrichment index” value read?
Its value is 0.0258.

For AGUUAUAUAUGGGAGCAACAGCACAGUGAAAUGGACAGAAGGGCAGAGCAA, which “exon inclusion enrichment index” value is on record?
The value was 0.0198.
